Measured values published in PMC4150794.

Legend:
[1] = tested on: RBPMS2-Nter (Homo sapiens); assay: EMSA; conditions: theoretical Kd, cooperative fit; 100 nM RNA; second complex at 5 uM; EMSA: 20 mM Tris pH 7.4, 100 mM KCl, 1 mM EDTA, 10 ug/ml BSA, 1 mM DTT, 1 U/ul RNaseOUT, 2% glycerol, 20 C 30 min, 10% gel in 1X TBE at 4 C; anisotropy: 20 mM …
Q6ZRY4 = assay: SEC-MALS; Superdex 75 10/300, 20 mM Tris-HCl pH 8, 300 mM NaCl; loaded at 2 mg/ml (RBPMS2-Nter) or 4 mg/ml (RBPMS2-Nter-L49E); monomer to dimer

Row | Substance | Kd [1] | percent of the protein in the monomer peak (Q6ZRY4)
1 | 161-nt NOGGIN RNA | 2250 nM | –
2 | RBPMS2-Nter-L49E (human RBPMS2 residues 27-117 with L49E) | – | The majority species (92.4%) has a Mw of 10.6 kDa, as would be expected for the monomer
